Article doi:10.1101/2021.03.03.433707

Biological target: MukB, full length, wild type (E. coli) (UniProt P22523)
Assay: fluorescence correlation spectroscopy

Chain of MBP-ParC^CTD (ParC C-terminal domain with N-terminal MBP fusion) (domain or fragment) (P0AFI2 whole entry, the tested form may be a part): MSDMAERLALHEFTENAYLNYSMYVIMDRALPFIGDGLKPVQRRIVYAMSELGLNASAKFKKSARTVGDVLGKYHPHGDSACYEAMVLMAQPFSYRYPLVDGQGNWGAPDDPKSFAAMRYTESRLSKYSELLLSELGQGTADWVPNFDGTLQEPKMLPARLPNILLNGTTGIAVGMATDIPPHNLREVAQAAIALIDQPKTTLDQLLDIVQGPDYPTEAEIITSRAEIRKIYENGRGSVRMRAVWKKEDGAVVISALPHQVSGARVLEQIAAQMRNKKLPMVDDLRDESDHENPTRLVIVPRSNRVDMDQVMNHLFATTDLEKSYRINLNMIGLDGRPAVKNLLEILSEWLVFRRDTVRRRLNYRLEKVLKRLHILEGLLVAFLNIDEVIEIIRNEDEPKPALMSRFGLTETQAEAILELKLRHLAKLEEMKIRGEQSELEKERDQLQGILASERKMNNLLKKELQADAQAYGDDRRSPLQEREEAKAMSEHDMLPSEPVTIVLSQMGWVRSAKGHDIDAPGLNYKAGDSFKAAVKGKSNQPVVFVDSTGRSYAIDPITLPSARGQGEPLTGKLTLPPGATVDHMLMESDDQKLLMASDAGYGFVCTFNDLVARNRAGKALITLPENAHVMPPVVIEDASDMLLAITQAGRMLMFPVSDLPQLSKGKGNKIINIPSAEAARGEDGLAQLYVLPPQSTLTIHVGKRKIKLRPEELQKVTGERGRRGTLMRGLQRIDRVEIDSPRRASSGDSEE
Chain of MukB, full length, wild type (E. coli) (P22523 whole entry): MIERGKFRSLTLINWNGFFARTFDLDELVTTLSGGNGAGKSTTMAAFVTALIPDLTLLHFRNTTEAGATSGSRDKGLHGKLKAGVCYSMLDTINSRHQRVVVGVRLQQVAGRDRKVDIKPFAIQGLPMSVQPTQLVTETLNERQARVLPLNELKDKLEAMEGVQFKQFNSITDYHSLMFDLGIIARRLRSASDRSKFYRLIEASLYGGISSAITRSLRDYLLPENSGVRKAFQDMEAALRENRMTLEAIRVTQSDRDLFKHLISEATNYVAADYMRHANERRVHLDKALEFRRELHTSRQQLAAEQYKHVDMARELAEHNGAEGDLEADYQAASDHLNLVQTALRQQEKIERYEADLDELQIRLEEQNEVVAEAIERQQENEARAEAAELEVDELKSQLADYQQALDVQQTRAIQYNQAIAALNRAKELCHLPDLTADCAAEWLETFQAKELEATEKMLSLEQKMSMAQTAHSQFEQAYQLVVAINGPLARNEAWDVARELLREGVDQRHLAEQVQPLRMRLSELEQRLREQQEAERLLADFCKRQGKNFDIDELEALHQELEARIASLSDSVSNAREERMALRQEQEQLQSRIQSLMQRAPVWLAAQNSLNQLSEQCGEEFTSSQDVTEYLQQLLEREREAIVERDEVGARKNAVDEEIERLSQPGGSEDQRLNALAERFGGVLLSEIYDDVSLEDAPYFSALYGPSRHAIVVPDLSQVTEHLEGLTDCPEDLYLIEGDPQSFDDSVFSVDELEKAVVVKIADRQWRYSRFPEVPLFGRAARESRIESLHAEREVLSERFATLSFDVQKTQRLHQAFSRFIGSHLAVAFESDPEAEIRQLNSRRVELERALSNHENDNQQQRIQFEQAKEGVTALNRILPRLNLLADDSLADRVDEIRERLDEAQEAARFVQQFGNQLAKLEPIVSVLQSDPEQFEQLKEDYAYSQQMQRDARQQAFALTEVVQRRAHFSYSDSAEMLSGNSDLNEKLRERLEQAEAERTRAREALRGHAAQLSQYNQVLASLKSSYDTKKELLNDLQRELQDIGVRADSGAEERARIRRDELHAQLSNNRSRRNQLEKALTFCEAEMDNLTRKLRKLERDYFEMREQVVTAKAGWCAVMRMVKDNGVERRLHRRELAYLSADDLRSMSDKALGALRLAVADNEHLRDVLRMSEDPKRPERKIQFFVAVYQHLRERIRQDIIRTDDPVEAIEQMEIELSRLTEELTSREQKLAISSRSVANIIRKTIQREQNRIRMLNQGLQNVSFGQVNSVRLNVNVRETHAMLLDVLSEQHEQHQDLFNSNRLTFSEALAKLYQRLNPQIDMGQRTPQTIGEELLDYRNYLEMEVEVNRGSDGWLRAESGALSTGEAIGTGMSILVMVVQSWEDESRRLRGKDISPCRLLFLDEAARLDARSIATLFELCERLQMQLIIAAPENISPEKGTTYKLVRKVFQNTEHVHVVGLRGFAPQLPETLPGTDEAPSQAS

With “MBP-ParC^CTD (ParC C-terminal domain with N-terminal MBP fusion) (domain or fragment)” the fold decrease in MatP-Cy3B binding to MukB at a 10-fold excess of competitor was 3 fold.
